Reference: publication PMC8219831, “Native mass spectrometry analyses of chaperonin complex TRiC/CCT reveal subunit N-terminal processing and re-association patterns” (Scientific Reports, 2021)

B1: human TRiC subunit CCT4 (natural protein, UniProt P50991 2-539, looked up)
chain: PENVAPRSGATAGAAGGRGKGAYQDRDKPAQIRFSNISAAKAVADAIRTSLGPKGMDKMIQDGKGDVTITNDGATILKQMQVLHPAARMLVELSKAQDIEAGDGTTSVVIIAGSLLDSCTKLLQKGIHPTIISESFQKALEKGIEILTDMSRPVELSDRETLLNSATTSLNSKVVSQYSSLLSPMSVNAVMKVIDPATATSVDLRDIKIVKKLGGTIDDCELVEGLVLTQKVSNSGITRVEKAKIGLIQFCLSAPKTDMDNQIVVSDYAQMDRVLREERAYILNLVKQIKKTGCNVLLIQKSILRDALSDLALHFLNKMKIMVIKDIEREDIEFICKTIGTKPVAHIDQFTADMLGSAELAEEVNLNGSGKLLKITGCASPGKTVTIVVRGSNKLVIEEAERSIHDALCVIRCLVKKRALIAGGGAPEIELALRLTEYSRTLSGMESYCVRAFADAMEVIPSTLAENAGLNPISTVTELRNRHAQGEKTAGINVRKGGISNILEELVVQPLLVSVSALTLATETVRSILKIDDVVNTR
notes: CCT4 subunit of human TRiC; initiator methionine removed, proline exposed, not acetylated (from the measured mass); also called CCTδ; source: Hi5 (Trichoplusia ni) cells, baculovirus pYC35 co-expressing CCT1-8; purified as hTRiC (calmodulin resin, monoQ, SEC); released by RP-HPLC or by 25% DMSO or methanol
B2: human TRiC subunit CCT2 (natural protein, UniProt P78371 2-535, looked up)
chain: ASLSLAPVNIFKAGADEERAETARLTSFIGAIAIGDLVKSTLGPKGMDKILLSSGRDASLMVTNDGATILKNIGVDNPAAKVLVDMSRVQDDEVGDGTTSVTVLAAELLREAESLIAKKIHPQTIIAGWREATKAAREALLSSAVDHGSDEVKFRQDLMNIAGTTLSSKLLTHHKDHFTKLAVEAVLRLKGSGNLEAIHIIKKLGGSLADSYLDEGFLLDKKIGVNQPKRIENAKILIANTGMDTDKIKIFGSRVRVDSTAKVAEIEHAEKEKMKEKVERILKHGINCFINRQLIYNYPEQLFGAAGVMAIEHADFAGVERLALVTGGEIASTFDHPELVKLGSCKLIEEVMIGEDKLIHFSGVALGEACTIVLRGATQQILDEAERSLHDALCVLAQTVKDSRTVYGGGCSEMLMAHAVTQLANRTPGKEAVAMESYAKALRMLPTIIADNAGYDSADLVAQLRAAHSEGNTTAGLDMREGTIGDMAILGITESFQVKRQVLLSAAEAAEVILRVDNIIKAAPRKRVPDHHPC
modifications: N-terminal acetylation
notes: CCT2 subunit of human TRiC; initiator methionine removed (from the measured mass); also called CCTβ; source: Hi5 (Trichoplusia ni) cells, baculovirus pYC35 co-expressing CCT1-8; purified as hTRiC (calmodulin resin, monoQ, SEC); released by RP-HPLC or by 25% DMSO or methanol

Key:
[1] = target: human TRiC subunit CCT8 (human) (UniProt P50990); experiment: native MS; hTRiC in ammonium acetate pH 7.5 disrupted with 25% (v/v) DMSO, analysed within 30 min; dimers assigned by mass within 12 Da
[2] = target: the molecule itself; experiment: intact mass spectrometry of reverse phase fractions (denaturing); RP-HPLC fractions of hTRiC in acetonitrile/TFA elution buffer, 0.1-0.6 μM, nanoelectrospray, QExactive Plus EMR; partially unfolded dimers; dimer masses fitted assuming disulfide formation (-2 Da)

Molecule	percent of all dimer signal [1]	stoichiometry N [2]
human TRiC subunit CCT8 (from UniProt P50990 2-548) (natural protein)	15%	
B1		2
B2		2
